Source: patent US20250276018A1 (AFFYIMMUNE THERAPEUTICS, published 2025)
Changes are numbered by the printed parent chain. In names and notes the source's numbering stands. Like-named read-outs stand apart in the source and are kept apart here.

Legend:
[1] = target: T1, c-MET on human target cells (human, UniProt P08581 25-1390); test: cell-based or functional assay
[2] = target: T2, AF647 labeled c-met protein (UniProt P08581 25-932, limits assumed, labeled with AlexaFluor 647 (AF647)); test: flow cytometry, AF647-labeled c-met protein titrated on CAR-T cells (Round 1)
T2 construct: Soluble labeled c-met protein titrated on CAR-T cells
Protocol: (§1) Binding of labeled c-MET to CAR-T cells expressing the affinity tuned c-MET scFvs was evaluated by transducing lentivirus anti-c-MET CAR particles into human T cells to form c-MET CAR-T cells incubated with AF647-labeled c-MET. […] Following a 48 hr. incubation at 37° C., the culture media was brought up to […] per well and incubated at 37° C. for 10 days.
(§2) Cells were stained on ice for 30 mins and then washed with PBS. After washing, residually bound protein on CAR T cells were measured on a flow cytometer (Beckman, CytoFLEX®). The resulting binding data was fit using a non-linear regression analysis on GraphPad Prism to calculate half effective dose concentration (EC₅₀) values. The results of this analysis are shown in FIGS. 2-5 and Tables 2-5 below.

[3] = target: T2, AF647 labeled c-met protein; test: flow cytometry, EC50 relative to parental Affy7 CAR-T cells (Round 1)
Protocol: as §1, §2

[4] = target: T2, AF647 labeled c-met protein; test: flow cytometry, AF647-labeled c-met protein on CAR-T cells; lower end tied to Affy7-L9A by Table 2
Protocol: as §2

[5] = target: T1, c-MET on human target cells; test: cell-based or functional assay; remark: listed apart in the source
[6] = target: T1, c-MET on human target cells; test: cell-based or functional assay; remark: listed apart in the source
[7] = target: T1, c-MET on human target cells; test: cell-based or functional assay; remark: listed apart in the source
[8] = target: T1, c-MET on human target cells; test: cell-based or functional assay; remark: listed apart in the source
[9] = target: T1, c-MET on human target cells; test: cell-based or functional assay; remark: listed apart in the source
[10] = target: T1, c-MET on human target cells; test: cell-based or functional assay; remark: listed apart in the source
[11] = target: T1, c-MET on human target cells; test: cell-based or functional assay; remark: listed apart in the source
[12] = target: T1, c-MET on human target cells; test: cell-based or functional assay; remark: listed apart in the source
[13] = target: T1, c-MET on human target cells; test: cell-based or functional assay; remark: listed apart in the source
[14] = target: T1, c-MET on human target cells; test: cell-based or functional assay; remark: listed apart in the source
[15] = target: T1, c-MET on human target cells; test: cell-based or functional assay; remark: listed apart in the source
[16] = target: T2, AF647 labeled c-met protein; test: flow cytometry, EC50 relative to parental Affy6 CAR-T cells (Round 1)
Protocol: as §1, §2

T1 sequence (P08581 25-1390): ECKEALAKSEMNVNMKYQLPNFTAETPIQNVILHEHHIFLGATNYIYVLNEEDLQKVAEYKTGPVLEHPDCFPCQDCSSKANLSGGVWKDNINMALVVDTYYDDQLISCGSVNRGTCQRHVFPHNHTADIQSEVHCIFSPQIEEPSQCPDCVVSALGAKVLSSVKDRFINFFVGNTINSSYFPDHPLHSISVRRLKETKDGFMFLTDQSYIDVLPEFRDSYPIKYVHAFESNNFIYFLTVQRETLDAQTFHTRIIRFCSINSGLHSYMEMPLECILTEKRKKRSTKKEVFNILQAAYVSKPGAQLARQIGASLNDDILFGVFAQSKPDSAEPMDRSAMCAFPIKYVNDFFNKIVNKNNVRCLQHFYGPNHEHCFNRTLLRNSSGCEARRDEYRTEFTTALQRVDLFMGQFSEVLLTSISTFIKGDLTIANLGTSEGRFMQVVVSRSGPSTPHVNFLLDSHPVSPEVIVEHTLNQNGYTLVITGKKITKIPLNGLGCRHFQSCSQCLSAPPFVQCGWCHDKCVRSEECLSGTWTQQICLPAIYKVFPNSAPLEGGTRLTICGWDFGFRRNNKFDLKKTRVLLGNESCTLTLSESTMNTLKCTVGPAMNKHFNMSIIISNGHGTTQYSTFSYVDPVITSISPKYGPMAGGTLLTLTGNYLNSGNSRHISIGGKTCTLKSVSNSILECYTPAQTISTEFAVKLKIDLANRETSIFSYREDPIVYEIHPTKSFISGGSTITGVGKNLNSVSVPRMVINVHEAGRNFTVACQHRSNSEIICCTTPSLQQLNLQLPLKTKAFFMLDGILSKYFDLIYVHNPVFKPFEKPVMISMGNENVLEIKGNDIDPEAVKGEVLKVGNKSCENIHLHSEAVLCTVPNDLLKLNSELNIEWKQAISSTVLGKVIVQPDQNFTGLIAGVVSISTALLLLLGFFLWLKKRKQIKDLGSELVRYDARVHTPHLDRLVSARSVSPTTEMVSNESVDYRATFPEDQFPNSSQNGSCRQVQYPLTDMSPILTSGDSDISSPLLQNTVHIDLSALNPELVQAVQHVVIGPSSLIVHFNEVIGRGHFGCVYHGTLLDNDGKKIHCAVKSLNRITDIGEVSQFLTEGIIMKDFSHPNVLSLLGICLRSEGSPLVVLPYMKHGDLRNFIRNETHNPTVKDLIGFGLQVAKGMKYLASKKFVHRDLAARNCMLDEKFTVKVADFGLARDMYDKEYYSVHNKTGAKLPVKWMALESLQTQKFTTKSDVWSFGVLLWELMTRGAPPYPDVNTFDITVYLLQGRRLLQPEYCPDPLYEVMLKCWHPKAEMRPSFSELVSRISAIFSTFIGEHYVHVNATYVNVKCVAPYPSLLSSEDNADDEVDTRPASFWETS
T2 sequence (P08581 25-932 limits assumed): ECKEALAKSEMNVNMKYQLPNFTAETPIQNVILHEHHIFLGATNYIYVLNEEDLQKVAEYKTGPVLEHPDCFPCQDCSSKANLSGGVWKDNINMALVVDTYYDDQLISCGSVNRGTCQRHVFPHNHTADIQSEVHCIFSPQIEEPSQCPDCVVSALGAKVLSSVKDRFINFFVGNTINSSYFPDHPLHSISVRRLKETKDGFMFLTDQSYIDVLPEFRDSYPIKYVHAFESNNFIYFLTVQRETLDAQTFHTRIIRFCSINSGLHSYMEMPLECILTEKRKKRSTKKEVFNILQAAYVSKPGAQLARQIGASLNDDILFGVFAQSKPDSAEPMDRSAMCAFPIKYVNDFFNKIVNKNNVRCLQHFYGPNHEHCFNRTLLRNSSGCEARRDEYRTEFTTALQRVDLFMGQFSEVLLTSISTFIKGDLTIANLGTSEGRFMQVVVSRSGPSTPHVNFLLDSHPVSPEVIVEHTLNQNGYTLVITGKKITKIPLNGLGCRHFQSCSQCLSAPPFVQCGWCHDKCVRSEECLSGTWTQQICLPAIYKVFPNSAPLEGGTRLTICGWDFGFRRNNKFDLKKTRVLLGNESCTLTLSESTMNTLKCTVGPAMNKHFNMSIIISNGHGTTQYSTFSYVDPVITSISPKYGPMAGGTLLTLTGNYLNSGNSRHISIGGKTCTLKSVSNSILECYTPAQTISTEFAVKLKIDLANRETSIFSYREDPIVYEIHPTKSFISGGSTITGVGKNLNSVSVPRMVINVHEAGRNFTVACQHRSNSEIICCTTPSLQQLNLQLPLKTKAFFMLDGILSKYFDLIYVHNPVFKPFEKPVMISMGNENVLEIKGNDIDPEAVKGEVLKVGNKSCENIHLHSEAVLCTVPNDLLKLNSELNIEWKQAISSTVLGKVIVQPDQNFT

B1: Affy7-L9A CAR (other)
chain: GSEQKLISEEDLGSQVQLQQSGPELVRPGASVKMSCRASGYTFTSYWLHWVKQRPGQGLEWIGMIDPSNSDTRFNPNFKDKATLNVDRSSNTAYMLLSSLTSADSAVYYCATYGSYVSPADYWGQGTSVTVSSGGGGSGGGGSGGGGSDIMMSQSPSSLTVSVGEKVTVSCKSSQSLLYTSSQKNYLAWYQQKPGQSPKLLIYWASTRESGVPDRFTGSGSGTDFTLTITSVKADDLAVYYCQQYYAYPWTFGGGTKLEIKRASTTTPAPRPPTPAPTIASQPLSLRPEACRPAAGGAVHTRGLDFACDFWVLVVVGGVLACYSLLVTVAFIIFWVRSKRSRLLHSDYMNMTPRRPGPTRKHYQPYAPPRDFAAYRSLRVKFSRSADAPAYQQGQNQLYNELNLGRREEYDVLDKRRGRDPEMGGKPRRKNPQEGLYNELQKDKMAEAYSEIGMKGERRRGKGHDGLYQGLSTATKDTYDALHMQALPPR
notes: CAR on transduced human T cells; L to A in HC CDR3; P2A remnant not included; also called MycT-Affy7-L9A CAR-SSTR2
cytotoxicity, Normal Human Colon Cells, 8 hrs [1]: 12.1
cytotoxicity, Normal Human Colon Cells, 16 hrs [1]: 25
cytotoxicity, Normal Human Colon Cells, 24 hrs [1]: 27.2
cytotoxicity, Normal Human Colon Cells, 32 hrs [1]: 38.2
cytotoxicity, Normal Human Colon Cells, 40 hrs [1]: 48.5
cytotoxicity, Normal Human Colon Cells, 48 hrs [1]: 49.6
EC50 [2]: 1 µM
Fold Change [3]: 20 fold
fold reduction in affinity relative to the parental-expressing CARs [4]: 20 to 7640 fold
cytotoxicity, Normal Human Kidney Cells, 8 hrs [5]: 12.9
cytotoxicity, Normal Human Kidney Cells, 16 hrs [5]: 23.9
cytotoxicity, Normal Human Kidney Cells, 24 hrs [5]: 30.7
cytotoxicity, Normal Human Kidney Cells, 32 hrs [5]: 38.8
cytotoxicity, Normal Human Kidney Cells, 40 hrs [5]: 46.9
cytotoxicity, Normal Human Kidney Cells, 48 hrs [5]: 54.7
cytotoxicity, Normal Human Liver Cells, 8 hrs [6]: 13.7
cytotoxicity, Normal Human Liver Cells, 16 hrs [6]: 24.5
cytotoxicity, Normal Human Liver Cells, 24 hrs [6]: 32.8
cytotoxicity, Normal Human Liver Cells, 32 hrs [6]: 37.9
cytotoxicity, Normal Human Liver Cells, 40 hrs [6]: 50.1
cytotoxicity, Normal Human Liver Cells, 48 hrs [6]: 60
cytotoxicity, Normal Human Lung Cells, 8 hrs [7]: 7.5
cytotoxicity, Normal Human Lung Cells, 16 hrs [7]: 20.9
cytotoxicity, Normal Human Lung Cells, 24 hrs [7]: 38.3
cytotoxicity, Normal Human Lung Cells, 32 hrs [7]: 46.4
cytotoxicity, Normal Human Lung Cells, 40 hrs [7]: 50.7
cytotoxicity, Normal Human Lung Cells, 47 hrs [7]: 45.3

B2: Affy7-Y6A CAR (other)
chain: B1 chain with Y113A, A120L
notes: CAR on transduced human T cells; Y to A in HC CDR3; P2A remnant not included; also called Affy-Y6A; MycT-Affy7-Y6A CAR-SSTR2
cytotoxicity, Normal Human Colon Cells, 8 hrs [1]: 13.1
cytotoxicity, Normal Human Colon Cells, 16 hrs [1]: 25
cytotoxicity, Normal Human Colon Cells, 24 hrs [1]: 25.6
cytotoxicity, Normal Human Colon Cells, 32 hrs [1]: 35.8
cytotoxicity, Normal Human Colon Cells, 40 hrs [1]: 45.4
cytotoxicity, Normal Human Colon Cells, 48 hrs [1]: 45.6
EC50 [2]: 3.3 µM
percent cytotoxicity, Hs746T, 24 hrs [8]: 88.3%
percent cytotoxicity, Hs746T, 48 hrs [8]: 98.4%
percent cytotoxicity, Hs746T, 72 hrs [8]: 98.8%
Fold Change [3]: 66 fold
cytotoxicity, Normal Human Lung Cells, 8 hrs [9]: 30.6
cytotoxicity, Normal Human Lung Cells, 16 hrs [9]: 32.6
cytotoxicity, Normal Human Lung Cells, 24 hrs [9]: 40.1
cytotoxicity, Normal Human Lung Cells, 32 hrs [9]: 48.3
cytotoxicity, Normal Human Lung Cells, 40 hrs [9]: 56.5
cytotoxicity, Normal Human Lung Cells, 48 hrs [9]: 64
cytotoxicity, Normal Human Kidney Cells, 8 hrs [5]: 15.8
cytotoxicity, Normal Human Kidney Cells, 16 hrs [5]: 27.1
cytotoxicity, Normal Human Kidney Cells, 24 hrs [5]: 29.4
cytotoxicity, Normal Human Kidney Cells, 32 hrs [5]: 31.1
cytotoxicity, Normal Human Kidney Cells, 40 hrs [5]: 42.6
cytotoxicity, Normal Human Kidney Cells, 48 hrs [5]: 54.7
cytotoxicity, Normal Human Kidney Cells, 8 hrs [10]: 29.2
cytotoxicity, Normal Human Kidney Cells, 16 hrs [10]: 39.3
cytotoxicity, Normal Human Kidney Cells, 24 hrs [10]: 48.9
cytotoxicity, Normal Human Kidney Cells, 32 hrs [10]: 53.9
cytotoxicity, Normal Human Kidney Cells, 40 hrs [10]: 60.5
cytotoxicity, Normal Human Kidney Cells, 48 hrs [10]: 65.9
cytotoxicity, Normal Human Colon Cells, 8 hrs [11]: 26.5
cytotoxicity, Normal Human Colon Cells, 16 hrs [11]: 36.3
cytotoxicity, Normal Human Colon Cells, 24 hrs [11]: 42.5
cytotoxicity, Normal Human Colon Cells, 32 hrs [11]: 51.5
cytotoxicity, Normal Human Colon Cells, 40 hrs [11]: 62.7
cytotoxicity, Normal Human Colon Cells, 48 hrs [11]: 70.7
percent cytotoxicity, SNU638, 24 hrs [12]: 79.2%
percent cytotoxicity, SNU638, 48 hrs [12]: 93.5%
percent cytotoxicity, SNU638, 72 hrs [12]: 98.7%
cytotoxicity, Normal Human Liver Cells, 8 hrs [6]: 14.2
cytotoxicity, Normal Human Liver Cells, 16 hrs [6]: 26.3
cytotoxicity, Normal Human Liver Cells, 24 hrs [6]: 33.1
cytotoxicity, Normal Human Liver Cells, 32 hrs [6]: 40.1
cytotoxicity, Normal Human Liver Cells, 40 hrs [6]: 55
cytotoxicity, Normal Human Liver Cells, 48 hrs [6]: 65
cytotoxicity, Normal Human Liver Cells, 8 hrs [13]: 19.3
cytotoxicity, Normal Human Liver Cells, 16 hrs [13]: 29.8
cytotoxicity, Normal Human Liver Cells, 24 hrs [13]: 44.8
cytotoxicity, Normal Human Liver Cells, 32 hrs [13]: 53.9
cytotoxicity, Normal Human Liver Cells, 40 hrs [13]: 57.5
cytotoxicity, Normal Human Liver Cells, 48 hrs [13]: 58.5
cytotoxicity, Normal Human Lung Cells, 8 hrs [7]: 13.1
cytotoxicity, Normal Human Lung Cells, 16 hrs [7]: 31.3
cytotoxicity, Normal Human Lung Cells, 24 hrs [7]: 47.6
cytotoxicity, Normal Human Lung Cells, 32 hrs [7]: 50
cytotoxicity, Normal Human Lung Cells, 40 hrs [7]: 53
cytotoxicity, Normal Human Lung Cells, 47 hrs [7]: 52.1
percent cytotoxicity, H1993, 24 hrs [14]: 85.7%
percent cytotoxicity, H1993, 48 hrs [14]: 96.9%
percent cytotoxicity, H1993, 72 hrs [14]: 99.2%

B3: Affy6-I3A CAR (other)
chain: GSEQKLISEEDLGSQVQLVQSGAEVKKPGASVKVSCKASGYIFTAYTMHWVRQAPGQGLEWMGWIKPNNGLANYAQKFQGRVTMTRDTSISTAYMELSRLRSDDTAVYYCARSEATTEFDYWGQGTLVTVSSGGGGSGGGGSGGGGSDIVLTQSPDSLAVSLGERATINCKSSESVDSYANSFMHWYQQKPGQPPKLLIYRASTRESGVPDRFSGSGSRTDFTLTISSLQAEDVAVYYCQQSKEDPLTFGGGTKVEIKASTTTPAPRPPTPAPTIASQPLSLRPEACRPAAGGAVHTRGLDFACDFWVLVVVGGVLACYSLLVTVAFIIFWVRSKRSRLLHSDYMNMTPRRPGPTRKHYQPYAPPRDFAAYRSLRVKFSRSADAPAYQQGQNQLYNELNLGRREEYDVLDKRRGRDPEMGGKPRRKNPQEGLYNELQKDKMAEAYSEIGMKGERRRGKGHDGLYQGLSTATKDTYDALHMQALPPR
notes: CAR on transduced human T cells; I to A in HC CDR3; P2A remnant not included; also called MycTAffy6-I3A CAR-SSTR2
percent cytotoxicity, H1993, 24 hrs [15]: 73.1%
percent cytotoxicity, H1993, 48 hrs [15]: 95.3%
percent cytotoxicity, H1993, 72 hrs [15]: 98.9%
EC50 [2]: 20.9 µM
Fold Change [16]: 956 fold
